Assay results: patent US20140242093A1, “METHODS AND COMPOSITIONS FOR MODULATING THE INNATE IMMUNE RESPONSE AND/OR MYOGENESIS IN A MAMMALIAN SUBJECT” (FRED HUTCHINSON CANCER RESEARCH CENTER, priority 2011, published 2014)

Tested on: control human primary myoblasts
Test: Expression microarray of primary myoblasts transduced with lentivirus carrying DUX4-fl, DUX4-s or GFP
Method: Primary human myoblasts were collected and cultured as previously described (Snider et al., 2010). Primary myoblasts were maintained at or below 70% confluency for proliferation. For differentiation, cells were allowed to reach 95-100% confluency in growth medium. Once confluency was reached, the cells were changed to differentiation medium (F10 media supplemented with 1% horse serum, 10 μg/mL insulin, and 10 μg/mL transferrin, penicillin/streptomycin) and maintained for 4 days. Human RD cells were grown in DMEM in 10% bovine calf serum (Hyclone) and penicillin/streptomycin. The primary myoblasts were transduced with lentivirus carrying DUX-fl, DUX4- or GFP (MOI=15).
Expression microarrays were performed on the transduced cells at 24 hours after transduction as follows. […] Samples were analyzed by Illumina Human Whole Genome microarrays. Probe intensities were corrected, normalized, and summarized by the Lumi package of Bioconductor (Du et al., 2008). Differentially expressed genes were identified by the LIMMA package of Bioconductor (Wettenhall and Smyth, 2004). Gene set enrichment analysis (GSEA) was performed using the Bioconductor GOstats package (Falcon and Gentleman, 2007).

B1: DUX4-s: short splice form of DUX4 (SEQ ID NO:112), keeps the double-homeobox domains, lacks the C-terminal activation domain (protein, listed as Homo sapiens)
chain: MALPTPSDSTLPAEARGRGRRRRLVWTPSQSEALRACFERNPYPGIATRERLAQAIGIPEPRVQIWFQNERSRQLRQHRRESRPWPGRRGPPEGRRKRTAVTGSQTALLLRAFEKDRFPGIAAREELARETGLPESRIQIWFQNRRARHPGQGGRAPAQV
B1 gave a PNMA6B expression fc (Refseq XM_001721351.1) of −0.2189, an LOC100133984 expression fc (Refseq XM_001723079.1) of −0.03265 and an LOC649330 expression fc (Refseq XM_001723218.1) of −0.2697. For the same molecule, the LOC100128202 expression fc (Refseq XM_001723719.1) was −0.1157, the LOC100130311 expression fc (Refseq XM_001724111.1) was 0.1436 and the LOC100131539 expression fc (Refseq XM_001724873.1) was 0.06524. It also gave an LOC100134006 expression fc (Refseq XM_001725030.1) of −0.02089, an LOC730167 expression fc (Refseq XM_001726158.1) of 1.257 and an LOC100129681 expression fc (Refseq XM_001726834.1, cultured human skeletal muscle) of 0.5189. For the same molecule, the LOC651709 expression fc (Refseq XM_001732813.1) was 0.09445, the LOC727828 expression fc (Refseq XR_015137.1) was −0.00556 and the LOC728060 fc (Refseq XR_015272.2) was 0.2553. The LOC732393 expression fc (Refseq XR_015873.1) was 0.03683, the MGC40489 expression fc (Refseq XR_016048.1) was −0.4604 and the LOC643263 expression fc (Refseq XR_016355.1) was −0.133. It also gave an LOC441081 expression fc (Refseq XR_017029.1) of 0.06023, an LOC647366 expression fc (Refseq XR_018122.1) of −0.003339 and an LOC440041 expression fc (Refseq XR_018122.2) of 0.021. It also gave an LOC647827 expression fc (Refseq XR_018213.1) of −0.05208, an LOC399988 expression fc (Refseq XR_018287.2) of −0.4131 and an LOC650215 fc (Refseq XR_018889.1) of 0.6386. The “fc of RBMS2P (expression array)” value (Refseq XR_019556.2) was 1.313, the LOC642148 expression fc (Refseq XR_019607.1) was 0.1352 and the LOC650236 expression fc (Refseq XR_036872.1) was −0.05945. The LOC100134322 expression fc (Refseq XR_037416.1) was 0.1962, the LOC730974 expression fc (Refseq XR_037751.1) was 0.02384 and the LOC643445 expression fc (Refseq XR_038080.1) was 0.07882. It also gave an LOC729516 expression fc (Refseq XR_038445.1) of −0.00369, an LOC340970 expression fc (Refseq XR_038494.1) of 0.03296 and an LOC645381 expression fc (Refseq XR_038557.1) of −0.1266. The LOC728429 expression fc (Refseq XR_038921.1) was −0.02834, the LOC645638 fc (Refseq XR_040455.1) was −0.07113 and the LOC400464 expression fc (Refseq XR_041115.1) was −0.07853. It also gave a TRIM53 expression fc (Refseq XR_041244.1) of 0.07913, an LOC729009 expression fc (Refseq XR_042330.1, cultured human skeletal muscle) of 0.6634 and an ABCC3 expression fc (cultured human skeletal muscle) of 0.1349. For the same molecule, the ADM expression fc (cultured human skeletal muscle) was 0.6367, the AGTRAP expression fc (cultured human skeletal muscle) was 0.6152 and the AHNAK expression fc (cultured human skeletal muscle) was 0.163. For the same molecule, the ANGPTL2 expression fc (cultured human skeletal muscle) was −0.7837, the ANKFY1 expression fc (cultured human skeletal muscle) was 0.09409 and the APOL3 expression fc (cultured human skeletal muscle) was 0.9777. It also gave an ARHGEF19 expression fc (cultured human skeletal muscle) of 0.1103, an ARID3A expression fc (cultured human skeletal muscle) of 0.2867 and an ASNS expression fc (cultured human skeletal muscle) of 0.7133. It also gave an ATF5 expression fc (cultured human skeletal muscle) of 0.5025, an ATL3 expression fc (cultured human skeletal muscle) of 1.352 and a BHLHB2 expression fc (cultured human skeletal muscle) of 0.6222. The BTG2 expression fc (cultured human skeletal muscle) was −0.1242, the BTN3A2 expression fc (cultured human skeletal muscle) was 0.3356 and the BTN3A3 expression fc (cultured human skeletal muscle) was 0.4019. It also gave a C1RL expression fc (cultured human skeletal muscle) of −0.1589, a C4orf18 expression fc (cultured human skeletal muscle) of −0.5109 and a C8orf13 expression fc (cultured human skeletal muscle) of 0.4235. The C14orf4 expression fc (cultured human skeletal muscle) was 0.05349, the C18orf56 expression fc (cultured human skeletal muscle) was 0.2126 and the CA9 expression fc (cultured human skeletal muscle) was 0.5237. The CABC1 expression fc (cultured human skeletal muscle) was −0.1757, the CABYR expression fc (cultured human skeletal muscle) was −0.04313 and the CCDC8 expression fc (cultured human skeletal muscle) was −0.09225. The CEBPD expression fc (cultured human skeletal muscle) was 0.1596, the CLDN15 expression fc (cultured human skeletal muscle) was −0.3718 and the CNTNAP1 expression fc (cultured human skeletal muscle) was 0.1486. The COL8A1 expression fc (cultured human skeletal muscle) was 0.469, the CRISPLD2 expression fc (cultured human skeletal muscle) was −0.45 and the CSF3 expression fc (cultured human skeletal muscle) was 0.8126. It also gave a CYGB expression fc (cultured human skeletal muscle) of 0.157, a CYP26B1 expression fc (cultured human skeletal muscle) of 0.4149 and a CYP27A1 expression fc (cultured human skeletal muscle) of −0.0598. The DAB2 expression fc (cultured human skeletal muscle) was 0.1092, the DCN expression fc (cultured human skeletal muscle) was 0.2641 and the DDB2 expression fc (cultured human skeletal muscle) was 0.1073. For the same molecule, the DDIT4 expression fc (cultured human skeletal muscle) was 0.346, the DDX60L expression fc (cultured human skeletal muscle) was 0.6578 and the DKFZp451A211 expression fc (cultured human skeletal muscle) was 0.3087. The DNAJB2 expression fc (cultured human skeletal muscle) was −0.01635, the DUSP10 expression fc (cultured human skeletal muscle) was −0.3659 and the ERAP2 expression fc (cultured human skeletal muscle) was 0.7658. It also gave an ESPNL expression fc (cultured human skeletal muscle) of −0.2957, an FADS1 expression fc (cultured human skeletal muscle) of 0.4186 and an FAM110B expression fc (cultured human skeletal muscle) of −0.7651. It also gave an FAM175A expression fc (cultured human skeletal muscle) of 0.2667, an FHL2 expression fc (cultured human skeletal muscle) of −0.08794 and an FILIP1L expression fc (cultured human skeletal muscle) of 0.06528. For the same molecule, the FKBP5 expression fc (cultured human skeletal muscle) was −0.1027, the FOXQ1 expression fc (cultured human skeletal muscle) was 0.6403 and the FPR1 expression fc (cultured human skeletal muscle) was 0.9327. The FST expression fc (cultured human skeletal muscle) was 0.9107, the FUCA1 expression fc (cultured human skeletal muscle) was 0.2909 and the GALK1 expression fc (cultured human skeletal muscle) was −0.5288. For the same molecule, the GALNTL2 expression fc (cultured human skeletal muscle) was 0.9881, the GAS1 expression fc (cultured human skeletal muscle) was 0.007049 and the GBP4 expression fc (cultured human skeletal muscle) was 2.337. The GFPT2 expression fc (cultured human skeletal muscle) was 0.04945, the GPX8 expression fc (cultured human skeletal muscle) was −0.3321 and the GRINA expression fc (cultured human skeletal muscle) was 0.4683. For the same molecule, the GSDMD expression fc (cultured human skeletal muscle) was 0.5738, the HAS2 expression fc (cultured human skeletal muscle) was 0.691 and the HCG4 expression fc (cultured human skeletal muscle) was 0.6838. The HES4 expression fc (cultured human skeletal muscle) was 1.068, the HLA-C expression fc (cultured human skeletal muscle) was 0.6015 and the HLA-H expression fc (cultured human skeletal muscle) was 0.327. It also gave an HOXC6 expression fc (cultured human skeletal muscle) of −0.1927, an ID3 expression fc (cultured human skeletal muscle) of −0.07117 and an IDH3B expression fc (cultured human skeletal muscle) of 0.07117. For the same molecule, the IFIT5 expression fc (cultured human skeletal muscle) was −0.2831, the IFITM2 expression fc (cultured human skeletal muscle) was 0.006726 and the IGFBP5 expression fc (cultured human skeletal muscle) was 0.178. It also gave an IHPK3 expression fc (cultured human skeletal muscle) of −0.09089, an IL32 expression fc (cultured human skeletal muscle) of 0.06112 and an IMPA2 expression fc (cultured human skeletal muscle) of −0.3411. It also gave an IRAK2 expression fc (cultured human skeletal muscle) of 0.5116, an IRAK3 expression fc (cultured human skeletal muscle) of 1.053 and an ISCU expression fc (cultured human skeletal muscle) of 0.03975. It also gave an ITPRIP expression fc (cultured human skeletal muscle) of 0.5516, a KIAA1618 expression fc (cultured human skeletal muscle) of −0.2961 and a KLF6 expression fc (cultured human skeletal muscle) of 0.6419. For the same molecule, the KRT17 expression fc (cultured human skeletal muscle) was 0.4585, the LAP3 expression fc (cultured human skeletal muscle) was 1.402 and the LIMA1 expression fc (cultured human skeletal muscle) was 0.2565. The LOC387763 expression fc (cultured human skeletal muscle) was 0.2048, the LOC389386 expression fc (cultured human skeletal muscle) was 1.37 and the LOC392437 expression fc (cultured human skeletal muscle) was 0.113. It also gave an LOC653879 expression fc (cultured human skeletal muscle) of 0.3261, an LOC728431 expression fc (cultured human skeletal muscle) of 0.4549 and an MAMDC2 expression fc (cultured human skeletal muscle) of −0.02851. For the same molecule, the MAOA expression fc (cultured human skeletal muscle) was −0.3759, the MCEE expression fc (cultured human skeletal muscle) was −0.341 and the MGC16121 expression fc (cultured human skeletal muscle) was 0.01304. It also gave an MIOS expression fc (cultured human skeletal muscle) of 0.1238, an MLPH expression fc (cultured human skeletal muscle) of 0.4233 and an MMP3 expression fc (cultured human skeletal muscle) of 0.2839. The MOCOS expression fc (cultured human skeletal muscle) was 0.4177, the MOV10 expression fc (cultured human skeletal muscle) was 0.6869 and the MSC expression fc (cultured human skeletal muscle) was 0.2529. The MSI2 expression fc (cultured human skeletal muscle) was 1.327, the MT1A expression fc (cultured human skeletal muscle) was −0.1212 and the MT2A expression fc (cultured human skeletal muscle) was 0.08469. The MUC1 expression fc (cultured human skeletal muscle) was 0.3508.
